{"source": "paper PMC9250616", "about": "(Angiogenesis, 2022)", "binders": {"B1": {"name": "biotinylated CMG2-AviTag construct (capillary morphogenesis gene 2, anthrax toxin receptor 2) (receptor)", "chain": "not shown", "modifications": "biotin (biotinylated CMG2-AviTag construct)"}}, "key": {"Collagen I": {"biological_target": "Collagen I", "test": "ELISA"}, "Collagen VI": {"biological_target": "Collagen VI", "sequence (P12109 20-1028, chain 1 of 3)": "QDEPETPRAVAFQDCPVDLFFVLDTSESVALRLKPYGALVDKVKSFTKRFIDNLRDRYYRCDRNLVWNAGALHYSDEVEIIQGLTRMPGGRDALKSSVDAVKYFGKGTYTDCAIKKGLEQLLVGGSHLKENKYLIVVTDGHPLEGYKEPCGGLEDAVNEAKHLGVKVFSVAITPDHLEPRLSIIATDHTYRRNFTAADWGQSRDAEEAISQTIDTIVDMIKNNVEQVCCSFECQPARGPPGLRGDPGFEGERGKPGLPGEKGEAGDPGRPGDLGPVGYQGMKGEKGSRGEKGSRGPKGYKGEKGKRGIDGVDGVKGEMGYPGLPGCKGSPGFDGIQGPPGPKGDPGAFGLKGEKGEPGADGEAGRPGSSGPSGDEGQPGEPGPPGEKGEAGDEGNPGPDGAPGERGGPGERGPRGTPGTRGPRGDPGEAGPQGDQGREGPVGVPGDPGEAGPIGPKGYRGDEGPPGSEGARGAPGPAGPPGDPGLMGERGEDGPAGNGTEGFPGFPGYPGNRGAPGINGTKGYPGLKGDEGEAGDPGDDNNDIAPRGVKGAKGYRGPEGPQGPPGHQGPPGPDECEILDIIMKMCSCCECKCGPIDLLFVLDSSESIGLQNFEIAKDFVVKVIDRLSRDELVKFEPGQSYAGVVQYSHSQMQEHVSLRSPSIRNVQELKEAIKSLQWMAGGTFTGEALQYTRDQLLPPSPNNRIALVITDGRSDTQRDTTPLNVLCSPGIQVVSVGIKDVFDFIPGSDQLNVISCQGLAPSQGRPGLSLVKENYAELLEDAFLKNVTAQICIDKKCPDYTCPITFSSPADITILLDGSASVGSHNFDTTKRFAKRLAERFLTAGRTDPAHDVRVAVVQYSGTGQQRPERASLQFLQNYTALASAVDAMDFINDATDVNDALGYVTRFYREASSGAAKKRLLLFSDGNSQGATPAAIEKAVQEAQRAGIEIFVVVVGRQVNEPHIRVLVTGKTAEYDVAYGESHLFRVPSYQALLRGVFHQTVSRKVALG", "sequence (P12110 21-1019, chain 2 of 3, further chain)": "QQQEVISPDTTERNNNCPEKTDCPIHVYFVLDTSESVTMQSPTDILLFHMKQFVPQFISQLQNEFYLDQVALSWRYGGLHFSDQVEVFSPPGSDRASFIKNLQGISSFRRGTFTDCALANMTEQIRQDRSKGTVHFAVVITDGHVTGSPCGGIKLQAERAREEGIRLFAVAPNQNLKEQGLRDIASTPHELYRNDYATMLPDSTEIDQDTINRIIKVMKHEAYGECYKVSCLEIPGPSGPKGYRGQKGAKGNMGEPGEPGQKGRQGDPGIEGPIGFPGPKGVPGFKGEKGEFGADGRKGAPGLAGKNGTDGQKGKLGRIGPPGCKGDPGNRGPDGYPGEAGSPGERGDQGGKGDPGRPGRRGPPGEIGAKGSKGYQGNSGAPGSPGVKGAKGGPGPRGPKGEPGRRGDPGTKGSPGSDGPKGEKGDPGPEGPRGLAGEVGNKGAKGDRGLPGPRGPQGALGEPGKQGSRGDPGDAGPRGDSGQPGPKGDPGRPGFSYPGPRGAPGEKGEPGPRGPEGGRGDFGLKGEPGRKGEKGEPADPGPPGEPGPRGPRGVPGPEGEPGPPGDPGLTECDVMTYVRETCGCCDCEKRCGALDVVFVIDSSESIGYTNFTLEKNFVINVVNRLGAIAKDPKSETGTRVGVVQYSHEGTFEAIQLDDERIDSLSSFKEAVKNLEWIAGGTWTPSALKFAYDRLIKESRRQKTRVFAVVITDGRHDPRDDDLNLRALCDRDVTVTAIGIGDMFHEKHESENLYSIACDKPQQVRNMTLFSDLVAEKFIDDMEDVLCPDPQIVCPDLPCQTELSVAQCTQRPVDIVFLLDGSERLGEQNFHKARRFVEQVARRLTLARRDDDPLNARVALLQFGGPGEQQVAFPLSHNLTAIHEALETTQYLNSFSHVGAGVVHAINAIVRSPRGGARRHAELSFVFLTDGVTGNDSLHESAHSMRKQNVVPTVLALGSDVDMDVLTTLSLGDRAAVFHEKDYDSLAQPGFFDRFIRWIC", "sequence (P12111 26-3177, chain 3 of 3, further chain)": "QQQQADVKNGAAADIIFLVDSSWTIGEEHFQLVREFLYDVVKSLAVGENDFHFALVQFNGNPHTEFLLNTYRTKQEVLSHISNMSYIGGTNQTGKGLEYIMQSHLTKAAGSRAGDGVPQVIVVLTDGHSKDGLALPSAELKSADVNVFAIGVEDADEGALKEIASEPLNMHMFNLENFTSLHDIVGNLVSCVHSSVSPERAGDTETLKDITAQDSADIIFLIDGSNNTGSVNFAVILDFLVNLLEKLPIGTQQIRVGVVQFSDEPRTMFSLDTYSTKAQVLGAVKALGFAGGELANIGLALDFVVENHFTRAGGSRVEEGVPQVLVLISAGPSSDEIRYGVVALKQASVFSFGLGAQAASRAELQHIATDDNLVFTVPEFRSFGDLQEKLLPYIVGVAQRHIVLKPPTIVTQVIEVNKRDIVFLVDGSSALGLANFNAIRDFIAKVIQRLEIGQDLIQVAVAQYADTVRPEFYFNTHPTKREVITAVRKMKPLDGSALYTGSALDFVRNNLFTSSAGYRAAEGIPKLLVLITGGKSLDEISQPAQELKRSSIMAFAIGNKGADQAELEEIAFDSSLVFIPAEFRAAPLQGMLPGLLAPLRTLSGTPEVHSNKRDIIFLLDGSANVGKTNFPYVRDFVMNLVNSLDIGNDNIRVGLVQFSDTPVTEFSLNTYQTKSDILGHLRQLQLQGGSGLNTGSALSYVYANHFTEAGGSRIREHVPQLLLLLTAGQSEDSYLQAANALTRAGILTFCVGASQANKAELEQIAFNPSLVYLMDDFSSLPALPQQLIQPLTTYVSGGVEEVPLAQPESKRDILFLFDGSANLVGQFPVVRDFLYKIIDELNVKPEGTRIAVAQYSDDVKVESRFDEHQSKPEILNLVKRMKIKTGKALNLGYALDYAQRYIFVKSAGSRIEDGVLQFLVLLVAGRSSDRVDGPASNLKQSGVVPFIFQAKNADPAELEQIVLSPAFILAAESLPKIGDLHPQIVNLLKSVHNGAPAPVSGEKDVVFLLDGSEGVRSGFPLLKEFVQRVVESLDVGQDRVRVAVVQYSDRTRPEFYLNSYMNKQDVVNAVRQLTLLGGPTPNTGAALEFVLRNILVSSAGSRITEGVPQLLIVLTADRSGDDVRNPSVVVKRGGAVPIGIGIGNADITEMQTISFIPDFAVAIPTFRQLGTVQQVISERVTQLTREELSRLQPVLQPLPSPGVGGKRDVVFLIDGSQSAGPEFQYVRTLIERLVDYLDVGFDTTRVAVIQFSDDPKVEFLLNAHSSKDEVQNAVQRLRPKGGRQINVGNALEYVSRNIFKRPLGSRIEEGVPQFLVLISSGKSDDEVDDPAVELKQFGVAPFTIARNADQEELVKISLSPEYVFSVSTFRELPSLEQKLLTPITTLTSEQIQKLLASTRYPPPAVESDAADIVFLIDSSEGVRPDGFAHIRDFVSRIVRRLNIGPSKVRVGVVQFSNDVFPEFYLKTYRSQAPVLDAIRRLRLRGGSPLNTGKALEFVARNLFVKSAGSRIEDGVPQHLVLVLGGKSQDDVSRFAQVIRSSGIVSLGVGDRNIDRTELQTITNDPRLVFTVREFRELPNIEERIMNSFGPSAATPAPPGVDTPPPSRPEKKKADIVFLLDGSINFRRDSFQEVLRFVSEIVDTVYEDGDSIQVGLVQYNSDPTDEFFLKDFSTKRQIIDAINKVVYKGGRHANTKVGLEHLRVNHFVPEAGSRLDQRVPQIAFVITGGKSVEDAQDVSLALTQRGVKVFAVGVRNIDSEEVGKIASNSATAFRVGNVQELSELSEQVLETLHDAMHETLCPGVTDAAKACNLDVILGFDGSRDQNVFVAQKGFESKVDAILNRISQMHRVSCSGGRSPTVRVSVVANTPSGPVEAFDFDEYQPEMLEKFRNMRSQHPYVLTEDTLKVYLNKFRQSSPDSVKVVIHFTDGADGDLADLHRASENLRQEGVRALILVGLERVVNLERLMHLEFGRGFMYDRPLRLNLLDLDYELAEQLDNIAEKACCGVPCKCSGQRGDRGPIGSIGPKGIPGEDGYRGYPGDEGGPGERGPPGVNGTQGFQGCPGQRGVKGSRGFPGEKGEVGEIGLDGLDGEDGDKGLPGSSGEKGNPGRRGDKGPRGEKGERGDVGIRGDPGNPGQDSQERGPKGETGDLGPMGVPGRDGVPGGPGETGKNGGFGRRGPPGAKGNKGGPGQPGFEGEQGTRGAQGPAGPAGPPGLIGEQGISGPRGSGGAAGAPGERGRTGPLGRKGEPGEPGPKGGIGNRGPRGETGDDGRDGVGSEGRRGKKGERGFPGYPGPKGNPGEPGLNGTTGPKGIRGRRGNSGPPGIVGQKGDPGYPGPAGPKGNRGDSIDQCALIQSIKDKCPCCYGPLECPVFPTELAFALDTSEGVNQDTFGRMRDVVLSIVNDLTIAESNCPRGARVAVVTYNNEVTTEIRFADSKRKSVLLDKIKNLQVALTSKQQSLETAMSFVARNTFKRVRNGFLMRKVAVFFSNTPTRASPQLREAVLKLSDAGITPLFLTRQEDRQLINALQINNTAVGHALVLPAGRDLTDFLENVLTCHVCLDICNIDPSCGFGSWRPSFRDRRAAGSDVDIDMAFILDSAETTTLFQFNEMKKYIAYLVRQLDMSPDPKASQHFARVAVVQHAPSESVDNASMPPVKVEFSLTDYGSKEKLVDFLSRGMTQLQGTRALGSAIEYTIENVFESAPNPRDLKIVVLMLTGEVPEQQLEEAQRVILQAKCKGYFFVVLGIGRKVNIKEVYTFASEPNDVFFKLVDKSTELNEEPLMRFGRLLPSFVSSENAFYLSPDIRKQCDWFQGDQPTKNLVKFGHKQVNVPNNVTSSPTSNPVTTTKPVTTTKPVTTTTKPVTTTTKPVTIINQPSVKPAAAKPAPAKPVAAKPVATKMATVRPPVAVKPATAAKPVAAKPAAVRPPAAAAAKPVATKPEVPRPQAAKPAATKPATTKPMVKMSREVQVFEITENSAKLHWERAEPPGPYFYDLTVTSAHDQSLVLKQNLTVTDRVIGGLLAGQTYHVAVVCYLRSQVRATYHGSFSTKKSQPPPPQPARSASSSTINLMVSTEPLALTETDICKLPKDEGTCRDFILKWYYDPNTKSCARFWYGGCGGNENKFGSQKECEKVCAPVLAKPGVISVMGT", "test": "ELISA"}}}
{"binder": "B1", "values": [{"measurement": "Kd", "setting": "Collagen I", "value": 500, "unit": "nM"}, {"measurement": "Kd", "setting": "Collagen VI", "value": 800, "unit": "nM"}]}
